Source: patent US20090317414A1, “CANCER VACCINE COMPRISING A MUCIN 1 (MUC1) T CELL EPITOPE-DERIVED PEPTIDE” (4G VACCINES PTY LTD, priority 2006, published 2009)

Columns and labels:
[1] = target: T1, soluble H-2K^b (soluble extracellular domains; heavy chain residues 1-274 with C-terminal His-tag and β2-microglobulin residues 1-99) (mouse); assay: inhibition assay with soluble H-2K^b, 4° C.
T1 chain: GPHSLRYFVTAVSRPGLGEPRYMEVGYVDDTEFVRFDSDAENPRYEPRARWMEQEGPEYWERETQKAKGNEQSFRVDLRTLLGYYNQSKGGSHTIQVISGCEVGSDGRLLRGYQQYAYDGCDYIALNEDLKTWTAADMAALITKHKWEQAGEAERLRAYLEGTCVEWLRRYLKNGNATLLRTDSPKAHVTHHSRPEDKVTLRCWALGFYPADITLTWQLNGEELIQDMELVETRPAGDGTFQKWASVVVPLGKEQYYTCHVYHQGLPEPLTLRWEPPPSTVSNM

[2] = target: T1, soluble H-2K^b (soluble extracellular …); assay: inhibition assay with soluble H-2K^b, 23° C.
[3] = target: T1, soluble H-2K^b (soluble extracellular …); assay: inhibition assay with soluble H-2K^b, 37° C.

Question: What does the source list for RGYVYQGL (modifications not checked) [VSV8 (RGYVYQGL), Vesicular stomatitis virus NP52-59]?
Answer: Kd [1]: 34 nM; Kd [2]: 27 nM; Kd [3]: 163 nM
